# In US20060153775A1 (BRACCO INTERNATIONAL B V, published 2006):
# Non-standard residues stand in square brackets, D forms with d. No end group written: not given here. AEEA = NCCOCCOCC(=O)O
# T1: NP-1/Fc (R&D Systems)
# T1 chain: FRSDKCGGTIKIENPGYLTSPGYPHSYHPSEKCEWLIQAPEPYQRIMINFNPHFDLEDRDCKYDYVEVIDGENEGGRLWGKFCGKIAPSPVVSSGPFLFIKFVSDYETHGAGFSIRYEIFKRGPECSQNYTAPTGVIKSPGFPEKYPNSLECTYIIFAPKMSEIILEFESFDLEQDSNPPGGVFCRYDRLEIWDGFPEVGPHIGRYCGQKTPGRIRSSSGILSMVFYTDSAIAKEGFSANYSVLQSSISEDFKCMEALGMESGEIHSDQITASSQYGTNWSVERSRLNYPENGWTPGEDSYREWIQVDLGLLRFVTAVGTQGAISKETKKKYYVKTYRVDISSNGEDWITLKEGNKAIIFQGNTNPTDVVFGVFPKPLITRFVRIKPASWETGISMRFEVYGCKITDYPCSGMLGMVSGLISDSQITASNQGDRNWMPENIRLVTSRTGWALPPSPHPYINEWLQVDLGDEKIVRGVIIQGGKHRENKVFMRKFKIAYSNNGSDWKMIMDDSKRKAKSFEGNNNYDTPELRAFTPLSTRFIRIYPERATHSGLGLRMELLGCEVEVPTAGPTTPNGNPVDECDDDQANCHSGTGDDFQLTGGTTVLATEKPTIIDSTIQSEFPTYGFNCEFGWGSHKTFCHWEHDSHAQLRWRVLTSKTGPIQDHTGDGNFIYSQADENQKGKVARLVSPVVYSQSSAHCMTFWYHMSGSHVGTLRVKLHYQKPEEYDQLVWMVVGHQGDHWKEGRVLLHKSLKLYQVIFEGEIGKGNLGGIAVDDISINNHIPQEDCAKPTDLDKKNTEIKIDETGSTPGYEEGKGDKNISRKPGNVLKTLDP
# B1: VEGF165 (ligand, UniProt P15692-4 27-191, looked up)
# chain: APMAEGGGQNHHEVVKFMDVYQRSYCHPIETLVDIFQEYPDEIEYIFKPSCVPLMRCGGCCNDEGLECVPTEESNITMQIMRIKPHQGQHIGEMSFLQHNKCECRPKKDRARQENPCGPCSERRKHLFVQDPQTCKCSCKNTDSRCKARQLELNERTCRCDKPRR
# modifications: 125I label on the radioligand form (Amersham IM274)
# notes: mature; The labelled and the unlabelled protein are kept as one molecule; also called unlabeled VEGF
# B2: TKPPR (L-threonyl-L-lysyl-L-prolyl-L-prolyl-L-arginine) (peptide)
# peptide: TKPPR
# notes: also called D45; TKPPR-OH
# B3: Tuftsin (TKPR) (peptide)
# peptide: TKPR
# notes: Naturally occurring tetrapeptide, used as free peptide; also called free tuftsin
# B4: TKPPR tetramer D43 on a lysine core with trioxa Oregon Green at the C-terminal (peptide)
# peptide: TKPPR
# modifications: also: tetramer: C-terminal Arg of each TKPPR linked to amino groups of branched Lys-Lys(Lys)-Gly core, Gly carries TTDA-Oregon Green
# notes: The lysine core (three Lys and one Gly) is not written as a chain of its own; also called Reverse Tetramer; compound 16
# B5: TKPPR tetramer D41, OG-(TKPPR)4 (peptide)
# peptide: [AEEA]TKPPR
# modifications: also: tetramer of four TKPPR on a branched non-peptide scaffold, one Oregon Green label on scaffold
# notes: also called tetrameric TKPPR; fluorescently-labeled TKPPR tetramer
# B6: TKPPR dimer D40, OG-(TKPPR)2 (peptide)
# peptide: [AEEA]TKPPR
# modifications: also: dimer on branched bis-acid scaffold carrying one Oregon Green
# B7: Qdots conjugated with monomeric TKPPR (D51) (peptide)
# peptide: TKPPR
# modifications: also: further groups not given here
# notes: The full structure of D51 ([M+H] 1004.5) stands only in a drawing; also called D51-conjugated Qdots; linear monomeric TKPPR-conjugated Qdots
# B8: Oregon Green (5-isomer)-GTKPPR-OH (peptide)
# peptide: {Oregon Green (5-isomer)}-GTKPPR-OH
# notes: also called D44; OG-TKPPR
# B9: Qdots conjugated with tetrameric TKPPR (D50) (peptide)
# peptide: [AEEA]TKPPR
# modifications: also: four TKPPR on a branched scaffold, thiol coupled through LC-SMCC to quantum dots
# notes: Many D50 molecules on each 655 nm quantum dot; also called D50-conjugated Qdots; branched tetrameric TKPPR-conjugated Qdots
# How the values were obtained:
# NP-1/Fc (R&D Systems) [1] = target: T1, NP-1/Fc (R&D Systems); assay: competition with 250 pM 125I-VEGF165 for plate-coated NP-1/Fc
# Method: (§1) Competitive binding assays with microtiter plates coated with NP-1/Fc (R&D systems) were performed using ¹²⁵I-VEGF₁₆₅ as radioligand (Amersham Pharmacia Biotech Cat. No. IM274, Specific Activity: 1000-2500 Ci/mmol). An assay buffer consisting of Hank's Balanced Salt Solution (HBSS), 25 mM HEPES, and 0.1% BSA, pH 7.4 was used, and for all experiments, Assay volume per well was 75 μL. Plates (Nunc MaxiSorp white opaque Microtiter plate [C-bottom, 437796]) were coated by incubating the wells with 75 μL of a solution containing 3 μg/mL NP-1/Fc in D-PBS/0.1% NaAzide overnight at 4° C. after covering with sealing tape (Dynex, VWR Cat. No. 62402-931). The next day all wells, even control wells lacking NP-1/Fc, were blocked 2 hrs with blocking buffer (1% BSA in D-PBS with 0.05% v/v Tween-20) then washed 4× with PBST (D-PBS/0.05% v/v Tween-20) before starting the assay. All points were derived from triplicate wells, and for each set of replicates in NP-1/Fc-coated wells, a companion set in the absence of the receptor was included. […] Solutions were added to 1.2 mL polypropylene tubes conforming to the microtiter format (Costar Cat. No. 29442-602), and transferred from these tubes to microtiter wells, without further dilution, using a multichannel pipetter. After addition of the appropriate solutions, microtiter plates were incubated at 4° C. for 2 hours. Following the incubation, plates were handwashed 5 times with D-PBS containing 0.05% Tween-20 and 0.1% BSA. The plates were blotted dry and 25 μL deionized water and 100 μL scintillation fluid (Optiphase SuperMix, Wallac) were added to each well. Plates were agitated using a Plate Shaker (Hyperion, Cat. No. 4030-100F) for 3-5 minutes and were then counted using a Microplate Scintillation Counter (Wallac Microbeta Trilux). A set of serially diluted ¹²⁵I-VEGF₁₆₅ standard wells ranging from 200 to 0.04 pM were included with each experiment to aid in quantification of the amount of radiolabel bound. VEGF₁₆₅ (Cat. No. 100-20) was obtained from Peprotech.
# NP-1/Fc (R&D Systems) [2] = target: T1, NP-1/Fc (R&D Systems); assay: fluorescence polarization, competition of OG-labeled D41 binding to NP-1/Fc
# Method: (§2) The ability of various compositions comprising TKPPR monomers or multimers to bind to NP-1/Fc and KDR-Fc was evaluated using FP. […] FP values (mP) for each substrate was measured by titrating the ligand (5-20 nM) with receptor protein using a Jolley Research and Consulting FPM-1 fluorescence Polarization analyzer. In each of these experiments the observed polarization values were plotted against receptor concentration. The mP values for 100% binding of tracer labeled ligand to receptor protein was calculated using the software provided by the vendor.
# NP-1/Fc (R&D Systems) [3] = target: T2, NP-1/Fc (R&D Systems); assay: competition with 250 pM 125I-VEGF165 for plate-coated NP-1/Fc
# T2 construct: Bought reagent; also called Neuropilin-1/Fc; Npn-1
# Method: as §1
# NP-1/Fc (R&D Systems) [4] = target: T2, NP-1/Fc (R&D Systems); assay: fluorescence polarization, competition of OG-labeled D41 binding to NP-1/Fc
# Method: as §2
# NP-1/Fc (R&D Systems) [5] = target: T2, NP-1/Fc (R&D Systems); assay: fluorescence polarization, OG-labeled ligand (5-20 nM) titrated with NP-1/Fc, 37 C
# Method: as §2
# [6] = target: T3, neuropilin-1 on HUVEC (neuropilin-1-expressing cells) (human, UniProt O14786 22-923); assay: Qdot binding to HUVEC, fluorescence microscopy
# T3 construct: whole, on cells; The assay was done on whole HUVEC; also called NP-1; endothelial cells
# Method: Human umbilical vein endothelial cells (HUVEC) were grown to near confluency on collagen 1-coated 8-well chamber slides (BD Biosciences) in EGM-2 medium (Cambrex). […] The slides were incubated 45 min at 37° C. in a tissue culture incubator with 5% CO₂ then incubated an additional 45 min at room temperature in ambient air. After washing five times with D-PBS (30 sec per wash), the cells were fixed with ice-cold acetone for 2 min, rinsed again with D-PBS, and mounted with SlowFade+Dapi (Molecular Probes). The slide wells were examined with a fluorescence microscope equipped with a filter set optimized for 655 nm quantum dots (Omega).
# [7] = target: T4, soluble human KDR/Fc chimera (R&D Systems Inc.) (human, UniProt P35968 20-764); assay: competition with 125I-VEGF165 for plate-coated KDR-Fc
# T4 construct: Bought reagent; Fc part of the bought chimera not given, not described
# T4 sequence (P35968 20-764, change not shown): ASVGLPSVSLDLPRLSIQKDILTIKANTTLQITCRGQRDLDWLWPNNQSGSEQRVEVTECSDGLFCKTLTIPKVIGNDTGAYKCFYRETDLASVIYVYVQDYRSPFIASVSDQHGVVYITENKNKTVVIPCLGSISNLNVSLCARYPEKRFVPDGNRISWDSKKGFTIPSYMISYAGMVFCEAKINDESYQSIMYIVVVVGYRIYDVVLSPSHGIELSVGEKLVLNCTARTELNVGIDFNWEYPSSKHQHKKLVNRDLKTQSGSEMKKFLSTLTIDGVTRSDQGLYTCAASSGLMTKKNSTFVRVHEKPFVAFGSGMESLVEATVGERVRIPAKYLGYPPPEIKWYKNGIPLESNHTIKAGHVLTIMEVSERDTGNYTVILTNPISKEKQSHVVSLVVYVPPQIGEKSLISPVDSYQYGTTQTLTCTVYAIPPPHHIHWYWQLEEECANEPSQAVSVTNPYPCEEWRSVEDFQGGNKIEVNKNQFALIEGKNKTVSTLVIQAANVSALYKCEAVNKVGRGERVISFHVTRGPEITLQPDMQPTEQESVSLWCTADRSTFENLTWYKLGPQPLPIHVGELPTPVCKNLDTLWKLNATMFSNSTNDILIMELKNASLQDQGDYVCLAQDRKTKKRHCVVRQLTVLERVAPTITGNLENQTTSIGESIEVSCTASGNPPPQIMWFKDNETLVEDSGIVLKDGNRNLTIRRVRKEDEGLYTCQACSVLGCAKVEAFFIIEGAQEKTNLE
# T3 sequence (O14786 22-923): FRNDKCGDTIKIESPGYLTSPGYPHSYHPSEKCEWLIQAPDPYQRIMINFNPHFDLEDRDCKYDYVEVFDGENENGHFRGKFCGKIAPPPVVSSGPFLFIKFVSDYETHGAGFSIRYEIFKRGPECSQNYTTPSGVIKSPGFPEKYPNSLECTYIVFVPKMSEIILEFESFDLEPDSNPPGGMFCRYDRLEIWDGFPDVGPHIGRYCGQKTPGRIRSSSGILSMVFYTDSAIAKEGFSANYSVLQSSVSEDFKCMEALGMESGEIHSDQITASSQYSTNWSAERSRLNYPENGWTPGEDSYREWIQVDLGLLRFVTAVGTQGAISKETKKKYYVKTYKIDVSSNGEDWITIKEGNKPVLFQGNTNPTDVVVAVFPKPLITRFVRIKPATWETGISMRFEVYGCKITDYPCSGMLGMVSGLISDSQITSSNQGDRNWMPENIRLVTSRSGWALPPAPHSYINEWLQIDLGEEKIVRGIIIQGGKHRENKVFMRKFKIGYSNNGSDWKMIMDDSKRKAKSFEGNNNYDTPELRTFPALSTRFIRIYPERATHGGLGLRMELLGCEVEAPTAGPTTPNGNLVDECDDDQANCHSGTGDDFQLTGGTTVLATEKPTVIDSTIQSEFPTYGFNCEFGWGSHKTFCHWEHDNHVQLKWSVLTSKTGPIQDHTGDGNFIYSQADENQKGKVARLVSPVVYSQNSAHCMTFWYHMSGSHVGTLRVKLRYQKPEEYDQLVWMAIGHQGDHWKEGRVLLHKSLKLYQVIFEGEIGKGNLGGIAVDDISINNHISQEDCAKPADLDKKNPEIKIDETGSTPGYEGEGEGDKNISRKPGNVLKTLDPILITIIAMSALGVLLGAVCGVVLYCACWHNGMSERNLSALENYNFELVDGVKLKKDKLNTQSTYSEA
Binder,IC50 (NP-1/Fc (R&D Systems) [1]),IC50 (NP-1/Fc (R&D Systems) [3]),other results
B1,0.0005 µM,–,IC50 (NP-1/Fc (R&D Systems) [2]): 0.2 µM
B2,–,43 µM,IC50 (NP-1/Fc (R&D Systems) [4]): 80 µM
B3,280 µM,–,–
B4,–,8 µM,–
B5,–,0.13 µM,Kd (NP-1/Fc (R&D Systems) [5]): 0.025 to 0.05 µM
B6,–,3 µM,–
B7,–,–,binding result [6]: binds
B8,30 µM,–,binding result [7]: no binding
B9,–,–,binding result [6]: binds
